{"source": "paper PMC13276377", "about": "“Structural Mechanism of Receptor-Triggered MyD88 Oligomeric Assembly in Innate Immune Signaling” (Nature Communications, 2026)", "proteins": {"B1": {"name": "TIR domain of MyD88 (TIR_(MyD88); residues 153–296) (domain or fragment, human, UniProt Q99836-1 153-296, looked up)", "chain": "PLGHMPERFDAFICYCPSDIQFVQEMIRQLEQTNYRLKLCVSDRDVLPGTCVWSIASELIEKRCRRMVVVVSDDYLQSKECDFQTKFALSLSPGAHQKRLIPIKYKAMKKEFPSILRFITVCDYTNPCTKSWFWTRLAKALSLP", "notes": "human MyD88, TIR domain, amino acids 153–296; Self-assembles into antiparallel double-stranded filaments, double-layered rings and cylindrical fibers; also called WT TIR_(MyD88); Toll/interleukin-1 receptor domain of MyD88"}}, "biological_target": "the molecule itself", "test": "high-speed AFM; 10–200 μM TIR_(MyD88) adsorbed on mica for 10 min; 20 mM HEPES pH 7.0, 50 mM NaCl, 10 mM DTT; room temperature", "data": [{"protein": "B1", "values": [{"measurement": "stoichiometry N", "result": 58}]}]}
